Here are results for five molecules from patent US20220348651A1 (Novartis, published 2022).

B1: ANTI-HUMAN ENTPD2 MAB5 (antibody, human IgG1, kappa, V domains shown)
VH: QIQLQESGPGLVKPSQTLSLTCTVSGYSITSGYYWNWIRQHPGKGLEWIGYISYDADNNYNPSLKNRVTISRDTSKNQFSLKLSSVTAADTAVYYCAGGYYRYGLGSYRGSYYYVMDYWGQGTTVTVSS
VL: ETVLTQSPATLSVSPGERATISCKASQSVDYDGNSYMNWYQQKPGQAPRLLIYAASNLESGIPARFSGSGSGTDFTLTISSVEPEDAATYYCQQSNEDPPTFGGGTKLEIKR
notes: humanized and optimized from mAb16; human IgG1, kappa; also called Anti-ENTPD2 mAb5
B2: ANTI-HUMAN ENTPD2 MAB6 (antibody, human IgG1, kappa, V domains shown)
VH: B1 VH with I2V, I49M, V68I, R109S
VL: DTQMTQSPSSLSVSVGDRATITCKASQSVDYEGHSYMNWYQQKPGKAPKLLIYAASNLESGVPSRFSGSGSGTDFTLTISSVQPEDFATYYCQQSNEDPPTFGGGTKLEIKR
notes: humanized and optimized from mAb16; human IgG1, kappa; also called Anti-ENTPD2 mAb6
B3: ANTI-HUMAN ENTPD2 MAB9 (antibody, human IgG1, lambda, V domains shown)
VH: QVQLVQSGAEVKKPGSSVKVSCKASGGTFDSYAVSWVRQAPGQGLEWMGRIVPWLGHTQYAQKFQGRVTITADESTSTAYMELSSLRSEDTAVYYCARESPGYRYSFDVWDQGTLVTVSS
VL: SYELTQPLSVSVALGQTARITCSGDAIGEKYVYWYQQKPGQAPVLVIYDDNNRPSGIPERFSGSNSGNTATLTISRAQAGDEADYYCASYDLQQARWVFGGGTKLTVLG
notes: also called Anti-ENTPD2 mAb9
B4: ANTI-HUMAN ENTPD2 MAB10 (antibody, human IgG1, lambda, V domains shown)
VH: B3 VH with H57F, Q59R
VL: B3 VL
notes: also called Anti-ENTPD2 mAb10
B5: ANTI-HUMAN ENTPD2 MAB8 (antibody, human IgG1, lambda, V domains shown)
VH: QVQLQQSGPGLVKPSQTLSLTCAISGDSVSSSSAAWNWIRQSPSRGLEWLGRIYYRSKWYNDYAVSVKSRITINPDTSKNQFSLQLNSVTPEDTAVYYCARGSYVTSSYEGFDYWGQGTLVTVSS
VL: SYELTQPLSVSVALGQTARITCSGDNLPEKYAYWYQQKPGQAPVLVIYDDNKRPSGIPERFSGSNSGNTATLTISRAQAGDEADYYCQSYGKWGWTWVFGGGTKLTVLG
notes: also called Anti-ENTPD2 mAb8

Numbering of substitutions follows the chain as printed.

In one test the target is T1, human ENTPD2 expressed on cells (human, UniProt Q9Y5L3 1-495).
T1 construct: full-length human ENTPD2 on engineered cells; also called NIH3T3 humanENTPD2; NIH/3T3-hENTPD2
T1 sequence: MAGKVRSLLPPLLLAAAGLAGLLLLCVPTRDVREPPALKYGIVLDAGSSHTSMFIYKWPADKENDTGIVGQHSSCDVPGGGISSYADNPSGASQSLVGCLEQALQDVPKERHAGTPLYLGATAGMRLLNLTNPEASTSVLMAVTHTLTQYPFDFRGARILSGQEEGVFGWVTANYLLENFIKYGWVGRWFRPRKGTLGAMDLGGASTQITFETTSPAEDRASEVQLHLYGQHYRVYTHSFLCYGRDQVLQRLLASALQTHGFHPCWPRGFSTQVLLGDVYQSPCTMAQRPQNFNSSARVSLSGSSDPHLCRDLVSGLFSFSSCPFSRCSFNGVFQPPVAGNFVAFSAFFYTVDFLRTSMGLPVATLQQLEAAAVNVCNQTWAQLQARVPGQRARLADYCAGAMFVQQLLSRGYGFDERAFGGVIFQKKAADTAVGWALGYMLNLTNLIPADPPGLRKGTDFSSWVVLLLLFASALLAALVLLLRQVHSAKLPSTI
The experiment in a line: flow cytometry, RKO cells (endogenous ENTPD2). The method, then: FACS screening: Specific binding of candidate antibodies to endogenously expressed ENTPD2 was assessed by flow cytometry. […] Geometric mean fluorescence intensity was calculated on live single cells using FlowJo software.
For orientation: In flow cytometry, cells or beads pass a laser one at a time.
In turn, B1 showed an EC50 of 0.4 nM.

For B2, the 50% effective concentration (EC50) is 0.4 nM.

As for B3, the midpoint of the response, the EC50, lay at 0.5 nM.

The molecule B4 had a concentration giving a half-maximal response (EC50) of 0.6 nM.

As to B5, it took 0.3 nM to reach a half-maximal effect (EC50).

Another test addresses T2, recombinant monomeric mouse ENTPD2 extracellular domain (residues 29-462) with His6 tag (mouse, UniProt O55026 29-462).
T2 sequence: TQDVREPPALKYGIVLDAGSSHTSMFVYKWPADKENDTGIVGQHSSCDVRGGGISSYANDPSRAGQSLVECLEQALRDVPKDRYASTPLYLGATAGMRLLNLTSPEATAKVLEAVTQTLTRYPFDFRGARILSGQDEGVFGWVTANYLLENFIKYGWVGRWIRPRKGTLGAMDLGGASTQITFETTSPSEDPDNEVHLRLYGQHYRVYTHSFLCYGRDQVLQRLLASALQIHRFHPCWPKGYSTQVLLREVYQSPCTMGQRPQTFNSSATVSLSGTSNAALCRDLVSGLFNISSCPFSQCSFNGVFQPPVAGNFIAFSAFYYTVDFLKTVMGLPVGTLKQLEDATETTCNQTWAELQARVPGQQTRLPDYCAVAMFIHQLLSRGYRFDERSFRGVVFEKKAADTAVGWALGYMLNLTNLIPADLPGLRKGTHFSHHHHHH
Briefly: SPR Biacore. Background: SPR reads the build-up and loss of mass on a sensor chip optically.
Turning to B1, the binding result is “no binding”.

Turning to B2, the binding result is “no binding”.

For the molecule B3, the Kd was 750 nM.

For the molecule B4, the binding result is given as “binds”.

On to B5, for which the binding result is recorded as “binds”.

The next test concerns the target T1, human ENTPD2 expressed on cells. Briefly: flow cytometry, NIH3T3 human ENTPD2 cells.
In the case of B1, a half-maximal response (EC50) required 0.9 nM.

The molecule B2 displayed a half-maximal effective concentration (EC50) of 0.9 nM.

As to B3, a half-maximal effect (EC50) was put at 0.6 nM.

On to B4, for which the EC50 amounted to 0.8 nM.

B5 had a concentration for a half-maximal effect (EC50) of 0.6 nM.

A further test concerns the target T3, recombinant human ENTPD2 extracellular domain (residues 29-462) with C-terminal Avi-His6 tag (human, UniProt Q9Y5L3 29-462, biotinylated on the AviTag in the epitope binning assay).
T3 construct: also called human ENTPD2 ECD; Human ENTPD2-Avi-His6 protein
Briefly: SPR Biacore, mAb captured, ECD analyte, 25C. The method, then:
(§1) Biacore Screening: Affinity was measured by determining the kinetic rate constants using surface plasmon resonance (SPR) on a Biacore T200 or T100 with the T200 sensitivity upgrade instrument (Biacore, GE Healthcare). Antibodies were captured on CM5 sensor chips (Biacore, GE Healthcare) prepared with a mouse anti-human IgG Fc antibody (ThermoFisher catalogue #05-4200) amine coupled to the surface. […] ENTPD2 analytes were allowed to associate for 180 s and dissociate for up to 1800 s depending on the off-rate of the antibody at a flow rate of 30 μL/min. The running buffer was PBS pH 7.2 (prepared from a Corning 10X stock, cat#46-013-CM)+0.05% Tween 20. […] The raw data were analyzed using Biacore T200 Evaluation Software version 1.0 and fit to a 1:1 binding model, with all parameters set to fit globally except for RI, which was set to fit locally.
As for B1, the Kd is 0.6 nM, the koff stood at 0.00016 s⁻¹ and the on-rate (kon) came to 270000 M⁻¹ s⁻¹.

As for B2, the Kd was found to be 0.7 nM, the koff is 0.00026 s⁻¹ and the kon stood at 350000 M⁻¹ s⁻¹.

B3: the equilibrium dissociation constant (Kd) amounted to 0.9 nM, the off-rate constant (koff) was determined as 0.0003 s⁻¹ and the on-rate (kon) is 380000 M⁻¹ s⁻¹.

With B4, the Kd worked out at 0.8 nM, the koff was 0.00024 s⁻¹ and the kon came to 340000 M⁻¹ s⁻¹.

B5: the dissociation constant (Kd) was 3.3 nM, the koff was found to be 0.00094 s⁻¹ and the kon was determined as 290000 M⁻¹ s⁻¹.

For the next test, the target named is T4, recombinant cyno ENTPD2 extracellular domain (residues 29-462) with C-terminal Avi-His6 tag (cynomolgus macaque, UniProt Q9Y5L3 29-462 (human entry)).
T4 construct: also called cynomologus (cyno) ENTPD2 ECD
T4 chain (part 1 of 2): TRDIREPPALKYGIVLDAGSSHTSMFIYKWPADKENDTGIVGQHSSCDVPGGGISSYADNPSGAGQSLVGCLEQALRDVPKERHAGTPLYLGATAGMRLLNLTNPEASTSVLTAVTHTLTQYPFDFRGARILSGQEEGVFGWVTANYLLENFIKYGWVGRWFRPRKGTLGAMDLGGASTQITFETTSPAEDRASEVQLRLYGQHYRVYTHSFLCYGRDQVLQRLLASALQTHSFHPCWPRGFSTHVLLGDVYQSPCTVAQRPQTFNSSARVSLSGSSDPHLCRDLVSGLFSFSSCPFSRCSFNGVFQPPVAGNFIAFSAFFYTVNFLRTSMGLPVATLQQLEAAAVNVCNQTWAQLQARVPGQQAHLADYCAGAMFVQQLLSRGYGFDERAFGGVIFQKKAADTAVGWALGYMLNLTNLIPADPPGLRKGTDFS
T4 chain (part 2 of 2): HHHHHH
Briefly: SPR Biacore, mAb captured, ECD analyte, 25C. The method, then: as §1
In the case of B1, the Kd came out at 10.7 nM, the dissociation rate constant (koff) is 0.003 s⁻¹ and the kon was 290000 M⁻¹ s⁻¹.

B2: the Kd was found to be 35.6 nM, the off-rate constant (koff) is 0.01 s⁻¹ and the kon came to 290000 M⁻¹ s⁻¹.

Regarding B3, the Kd is 20.9 nM, the off-rate (koff) is 0.021 s⁻¹ and the kon was found to be 990000 M⁻¹ s⁻¹.

With B4, the dissociation constant Kd was found to be 15.2 nM, the dissociation rate constant (koff) stood at 0.018 s⁻¹ and the on-rate constant (kon) worked out at 1.2e+06 M⁻¹ s⁻¹.

On to B5, for which the Kd is 81.1 nM, the dissociation rate constant (koff) came to 0.024 s⁻¹ and the association rate constant (kon) came to 300000 M⁻¹ s⁻¹.

A further test concerns the target T1, human ENTPD2 expressed on cells. The experiment in a line: cell-based or functional assay.
As to B1, the “% inhibition, Human ENTPD2 NIH/3T3 Assay” value was found to be 95%; the “% inhibition, RKO Assay” value was 80%; the “IC50, Human ENTPD2 NIH/3T3 Assay” value was determined as 0.3 nM; the “IC50, RKO Assay” value turned out to be 0.2 nM.

For the molecule B2, the “% inhibition, Human ENTPD2 NIH/3T3 Assay” value came to 95%; the “% inhibition, RKO Assay” value was 90%; the “IC50, Human ENTPD2 NIH/3T3 Assay” value stood at 0.3 nM; the “IC50, RKO Assay” value is 0.2 nM.

With B3, the “% inhibition, Human ENTPD2 NIH/3T3 Assay” value is 92%; the “% inhibition, RKO Assay” value came out at 70%; the “IC50, Human ENTPD2 NIH/3T3 Assay” value worked out at 0.3 nM; the “IC50, RKO Assay” value was 0.1 nM.

With B4, the “% inhibition, Human ENTPD2 NIH/3T3 Assay” value was found to be 88%; the “% inhibition, RKO Assay” value was found to be 77%; the “IC50, Human ENTPD2 NIH/3T3 Assay” value was 0.4 nM; the “IC50, RKO Assay” value was found to be 0.2 nM.

Regarding B5, the “% inhibition, Human ENTPD2 NIH/3T3 Assay” value was 97%; the “% inhibition, RKO Assay” value amounted to 95%; the “IC50, Human ENTPD2 NIH/3T3 Assay” value was found to be 0.1 nM; the “IC50, RKO Assay” value amounted to 0.2 nM.

The next test addresses T5, cyno ENTPD2 expressed on NIH/3T3 cells (cynomolgus macaque, UniProt Q9Y5L3 1-495 (human entry)).
T5 chain: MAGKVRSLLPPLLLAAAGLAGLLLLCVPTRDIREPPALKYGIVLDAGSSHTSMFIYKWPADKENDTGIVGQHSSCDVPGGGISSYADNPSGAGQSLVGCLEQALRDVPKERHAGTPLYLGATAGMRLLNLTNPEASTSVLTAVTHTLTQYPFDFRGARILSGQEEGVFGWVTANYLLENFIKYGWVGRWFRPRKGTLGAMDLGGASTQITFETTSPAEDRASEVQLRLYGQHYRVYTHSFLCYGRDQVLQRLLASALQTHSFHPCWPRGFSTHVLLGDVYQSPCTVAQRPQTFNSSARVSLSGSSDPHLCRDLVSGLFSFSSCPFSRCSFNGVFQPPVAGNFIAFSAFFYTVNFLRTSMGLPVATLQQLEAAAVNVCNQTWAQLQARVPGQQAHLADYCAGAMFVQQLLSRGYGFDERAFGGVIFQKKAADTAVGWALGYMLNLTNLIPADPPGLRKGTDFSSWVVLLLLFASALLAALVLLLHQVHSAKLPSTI
The experiment in a line: cell-based or functional assay.
With B1, the “% inhibition, Cyno ENTPD2 NIH/3T3 Assay” value turned out to be 80% and the “IC50, Cyno ENTPD2 NIH/3T3 Assay” value was 1.5 nM.

Turning to B2, the “% inhibition, Cyno ENTPD2 NIH/3T3 Assay” value is 73% and the “IC50, Cyno ENTPD2 NIH/3T3 Assay” value stood at 3.3 nM.

On to B3, for which the “% inhibition, Cyno ENTPD2 NIH/3T3 Assay” value is 71% and the “IC50, Cyno ENTPD2 NIH/3T3 Assay” value was 0.3 nM.

As to B4, the “% inhibition, Cyno ENTPD2 NIH/3T3 Assay” value amounted to 86% and the “IC50, Cyno ENTPD2 NIH/3T3 Assay” value is 0.5 nM.

With B5, the “% inhibition, Cyno ENTPD2 NIH/3T3 Assay” value worked out at 96% and the “IC50, Cyno ENTPD2 NIH/3T3 Assay” value was 0.9 nM.

The term EC50 denotes the concentration that produces a half-maximal response. Read a low EC50 as a more potent agent. One may read the Kd as the free concentration of one partner at which half of the binding sites on the other are occupied at equilibrium, for simple one-to-one binding. One may read the koff as the first-order rate constant of dissociation. For orientation: kon means a measure of how fast the partners come together.
